A short description of data set [1]: cell surface ELISA, HA tag, CHO. To be noted: glycan lost.
Data set [2] can be described thus: cell surface biotinylation, western blot. As to conditions: glycan lost. (In general: In western blotting, separated proteins are transferred to a membrane and probed.)
The nature of data set [3]: total lysate western blot. As to conditions: glycan lost.
Data set [4] can be described thus: calnexin co-immunolabelling intensity correlation (ER retention). As to conditions: glycan lost.
A short description of data set [5]: cycloheximide chase western; protein remaining. To be noted: glycan lost.
For data set [6], the target named is human GLP1R with C-terminal V5 epitope (GLP1R-V5) (human) (UniProt P43220).

B1: GIPR (GIP receptor): N62,77Q (protein)
parent chain: MTTSPILQLLLRLSLCGLLLQRAETGSKGQTAGELYQRWERYRRECQETLAAAEPPSGLACNGSFDMYVCWDYAAPNATARASCPWYLPWHHHVAAGFVLRQCGSDGQWGLWRDHTQCENPEKNEAFLDQRLILERLQVMYTVGYSLSLATLLLALLILSLFRRLHCTRNYIHINLFTSFMLRAAAILSRDRLLPRPGPYLGDQALALWNQALAACRTAQIVTQYCVGANYTWLLVEGVYLHSLLVLVGGSEEGHFRYYLLLGWGAPALFVIPWVIVRYLYENTQCWERNEVKAIWWIIRTPILMTILINFLIFIRILGILLSKLRTRQMRCRDYRLRLARSTLTLVPLLGVHEVVFAPVTEEQARGALRFAKLGFEIFLSSFQGFLVSVLYCFINKEVQSEIRRGWHHCRLRRSLGEEQRQLPERAFRALPSGSGPGEVPTSRGLSSGTLPGPGNEASRELESYC
In the case of B1, the localisation_or_trafficking entry in data set [1] (control: wild type HA-GIPR) and in data set [2] (control: wild type GIPR-V5) was “abolishes” in each case. Further, the expression_or_secretion result in data set [3] (control: wild type GIPR-V5) is “decreases”.

B2: GIPR (GIP receptor): N77Q (protein)
parent chain: B1 parent chain
B2: the localisation_or_trafficking entry in data set [1] (control: wild type HA-GIPR) and in data set [2] (control: wild type GIPR-V5) was “decreases” each time.

B3: GIPR (GIP receptor): complete glycosylation-deficient mutant (N62,77Q) (protein)
parent chain: B1 parent chain
Turning to B3, in data set [4] (control: wild type GIPR), the “localisation_or_trafficking, other: Pearson correlation” value was “increases, about 80% vs almost no correlation”.

B4: GIPR (GIP receptor): N62Q (protein)
parent chain: B1 parent chain
As for B4, the localisation_or_trafficking entry in data set [1] (control: wild type HA-GIPR) and in data set [2] (control: wild type GIPR-V5) was “decreases” throughout.

B5: GIPR (GIP receptor): glycosylation deficient GIPR (N62,77Q) (protein)
parent chain: B1 parent chain
As to B5, the degradation_or_half_life entry in data set [5] (control: wild type GIPR-V5) is listed as “decreases”.

B6: GLP-1R (GLP1R): N63,82,115Q (protein)
parent chain: MAGAPGPLRLALLLLGMVGRAGPRPQGATVSLWETVQKWREYRRQCQRSLTEDPPPATDLFCNRTFDEYACWPDGEPGSFVNVSCPWYLPWASSVPQGHVYRFCTAEGLWLQKDNSSLPWRDLSECEESKRGERSSPEEQLLFLYIIYTVGYALSFSALVIASAILLGFRHLHCTRNYIHLNLFASFILRALSVFIKDAALKWMYSTAAQQHQWDGLLSYQDSLSCRLVFLLMQYCVAANYYWLLVEGVYLYTLLAFSVLSEQWIFRLYVSIGWGVPLLFVVPWGIVKYLYEDEGCWTRNSNMNYWLIIRLPILFAIGVNFLIFVRVICIVVSKLKANLMCKTDIKCRLAKSTLTLIPLLGTHEVIFAFVMDEHARGTLRFIKLFTELSFTSFQGLMVAILYCFVNNEVQLEFRKSWERWRLEHLHIQRDSSMKPLKCPTSSLSSGATAGSSMYTATCQASCS
For B6, the localisation_or_trafficking result in data set [1] (control: wild type HA-GLP-1R) and in data set [2] (control: wild type GLP-1R-V5) was “decreases” in each case. Also, in data set [3] (control: wild type GLP-1R-V5), the expression_or_secretion result is listed as “decreases”.

B7: GLP-1R (GLP1R): complete glycosylation-deficient mutant (N63,82,115Q) (protein)
parent chain: B6 parent chain
For B7, the “localisation_or_trafficking, other: Pearson correlation” value in data set [4] (control: wild type GLP-1R) was “increases, just under 50% vs low level of correlation”.

B8: GLP-1R (GLP1R): N63Q (protein)
parent chain: B6 parent chain
In the case of B8, in data set [1] (control: wild type HA-GLP-1R), the localisation_or_trafficking entry is listed as “no change”.

B9: GLP-1R (GLP1R): N115Q (protein)
parent chain: B6 parent chain
Regarding B9, the localisation_or_trafficking entry in data set [1] (control: wild type HA-GLP-1R) was “no change”.

B10: GLP-1R (GLP1R): glycosylation deficient GLP-1R (N63,82,115Q) (protein)
parent chain: B6 parent chain
For B10, the degradation_or_half_life result in data set [5] (control: wild type GLP-1R-V5) was “decreases”.

B11: GLP-1R (GLP1R): N82Q (protein)
parent chain: B6 parent chain
As to B11, in data set [1] (control: wild type HA-GLP-1R), the localisation_or_trafficking result was “no change”.

B12: N62,77Q-GIPR-V5 (receptor)
chain: RAETGSKGQTAGELYQRWERYRRECQETLAAAEPPSGLACQGSFDMYVCWDYAAPQATARASCPWYLPWHHHVAAGFVLRQCGSDGQWGLWRDHTQCENPEKNEAFLDQRLILERLQVMYTVGYSLSLATLLLALLILSLFRRLHCTRNYIHINLFTSFMLRAAAILSRDRLLPRPGPYLGDQALALWNQALAACRTAQIVTQYCVGANYTWLLVEGVYLHSLLVLVGGSEEGHFRYYLLLGWGAPALFVIPWVIVRYLYENTQCWERNEVKAIWWIIRTPILMTILINFLIFIRILGILLSKLRTRQMRCRDYRLRLARSTLTLVPLLGVHEVVFAPVTEEQARGALRFAKLGFEIFLSSFQGFLVSVLYCFINKEVQSEIRRGWHHCRLRRSLGEEQRQLPERAFRALPSGSGPGEVPTSRGLSSGTLPGPGNEASRELESYC
B12: the rescue of the cAMP response to GIP (LANCE TR-FRET) in CHO cells co-expressing N62,77Q-GIPR-V5 and wild type GLP1R-V5; EC50 of GIP (neither receptor alone gave a response that could be fitted) in data set [6] was determined as 0.011 µM.

(Values after article PMC3296735.)
